In article PMC10995199, “Architecture and regulation of filamentous human cystathionine beta-synthase” (Nature Communications, 2024):

T1: full-length human cystathionine beta-synthase, N-terminal His-tag removed during purification (CBS^FL) (human), P35520
T1 chain: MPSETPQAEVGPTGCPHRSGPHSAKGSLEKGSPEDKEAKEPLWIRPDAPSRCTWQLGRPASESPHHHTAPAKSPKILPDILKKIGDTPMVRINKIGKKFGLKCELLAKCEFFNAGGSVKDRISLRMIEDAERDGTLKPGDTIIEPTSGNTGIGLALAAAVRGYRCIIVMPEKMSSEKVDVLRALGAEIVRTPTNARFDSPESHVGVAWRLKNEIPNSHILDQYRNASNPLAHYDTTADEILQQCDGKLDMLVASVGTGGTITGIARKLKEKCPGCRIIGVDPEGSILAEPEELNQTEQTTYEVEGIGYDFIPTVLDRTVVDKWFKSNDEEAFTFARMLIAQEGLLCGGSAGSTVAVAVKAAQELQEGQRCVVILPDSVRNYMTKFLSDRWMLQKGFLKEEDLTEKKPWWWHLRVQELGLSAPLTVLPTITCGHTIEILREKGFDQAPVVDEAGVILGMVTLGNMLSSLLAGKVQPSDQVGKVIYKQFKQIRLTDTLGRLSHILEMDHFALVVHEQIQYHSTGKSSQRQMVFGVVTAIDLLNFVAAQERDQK

T2: full-length human cystathionine beta-synthase with a permanent C-terminal His-tag (CBS^FL-CHis) (human), P35520
T2 chain: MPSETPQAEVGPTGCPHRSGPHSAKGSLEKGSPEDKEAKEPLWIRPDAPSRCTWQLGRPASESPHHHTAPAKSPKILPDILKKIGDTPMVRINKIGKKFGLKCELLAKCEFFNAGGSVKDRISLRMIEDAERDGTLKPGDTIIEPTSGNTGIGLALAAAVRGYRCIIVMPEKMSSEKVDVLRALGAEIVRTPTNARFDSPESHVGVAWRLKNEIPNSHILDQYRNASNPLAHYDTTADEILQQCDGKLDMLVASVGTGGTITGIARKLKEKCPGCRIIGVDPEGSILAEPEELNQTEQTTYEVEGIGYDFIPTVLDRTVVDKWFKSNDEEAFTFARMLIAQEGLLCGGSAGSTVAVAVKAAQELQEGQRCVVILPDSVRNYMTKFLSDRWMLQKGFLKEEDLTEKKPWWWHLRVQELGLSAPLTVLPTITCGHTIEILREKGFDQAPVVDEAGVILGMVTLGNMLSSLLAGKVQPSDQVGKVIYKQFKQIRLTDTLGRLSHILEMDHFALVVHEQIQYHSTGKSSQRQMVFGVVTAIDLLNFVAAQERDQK


What was measured:
Settings in all cases: remark: other sources report otherwise
[1] = target: T1, full-length human cystathionine …; experiment: SEC; analytical Superose 6 Increase 10/300 GL; 25 mM HEPES pH 7.5, 500 mM NaCl, 0.5 mM TCEP, 5% glycerol; 250 µl loaded at 3.0 mg/ml; self-association
[2] = target: T1, full-length human cystathionine …; experiment: native gel or EMSA; Coomassie-stained clear-native and blue-native PAGE; 25 mM HEPES pH 7.5, 200 mM NaCl, 2.0 mM TCEP; 1.0 mg/ml, 8.0 µg protein; without or with 1 mM SAM (no apparent effect on the oligomeric status); self-association
[3] = target: T2, full-length human cystathionine …; experiment: SEC; analytical Superose 6 Increase 10/300 GL; 25 mM HEPES pH 7.5, 500 mM NaCl, 0.5 mM TCEP, 5% glycerol; 250 µl loaded at 3.0 mg/ml; self-association

stoichiometry N [1] | stoichiometry N [2] | stoichiometry N [3] | Binder
> 4 | > 4 |  | full-length human cystathionine beta-synthase, N-terminal His-tag removed during purification (CBS^FL), P35520 1-551 (enzyme) MPSETPQAEVGPTGCPHRSGPHSAKGSLEKGSPEDKEAKEPLWIRPDAPSRCTWQLGRPASESPHHHTAPAKSPKILPDILKKIGDTPMVRINKIGKKFGLKCELLAKCEFFNAGGSVKDRISLRMIEDAERDGTLKPGDTIIEPTSGNTGIGLALAAAVRGYRCIIVMPEKMSSEKVDVLRALGAEIVRTPTNARFDSPESHVGVAWRLKNEIPNSHILDQYRNASNPLAHYDTTADEILQQCDGKLDMLVASVGTGGTITGIARKLKEKCPGCRIIGVDPEGSILAEPEELNQTEQTTYEVEGIGYDFIPTVLDRTVVDKWFKSNDEEAFTFARMLIAQEGLLCGGSAGSTVAVAVKAAQELQEGQRCVVILPDSVRNYMTKFLSDRWMLQKGFLKEEDLTEKKPWWWHLRVQELGLSAPLTVLPTITCGHTIEILREKGFDQAPVVDEAGVILGMVTLGNMLSSLLAGKVQPSDQVGKVIYKQFKQIRLTDTLGRLSHILEMDHFALVVHEQIQYHSTGKSSQRQMVFGVVTAIDLLNFVAAQERDQK
 |  | > 4 | full-length human cystathionine beta-synthase with a permanent C-terminal His-tag (CBS^FL-CHis), P35520 1-551 (enzyme) MPSETPQAEVGPTGCPHRSGPHSAKGSLEKGSPEDKEAKEPLWIRPDAPSRCTWQLGRPASESPHHHTAPAKSPKILPDILKKIGDTPMVRINKIGKKFGLKCELLAKCEFFNAGGSVKDRISLRMIEDAERDGTLKPGDTIIEPTSGNTGIGLALAAAVRGYRCIIVMPEKMSSEKVDVLRALGAEIVRTPTNARFDSPESHVGVAWRLKNEIPNSHILDQYRNASNPLAHYDTTADEILQQCDGKLDMLVASVGTGGTITGIARKLKEKCPGCRIIGVDPEGSILAEPEELNQTEQTTYEVEGIGYDFIPTVLDRTVVDKWFKSNDEEAFTFARMLIAQEGLLCGGSAGSTVAVAVKAAQELQEGQRCVVILPDSVRNYMTKFLSDRWMLQKGFLKEEDLTEKKPWWWHLRVQELGLSAPLTVLPTITCGHTIEILREKGFDQAPVVDEAGVILGMVTLGNMLSSLLAGKVQPSDQVGKVIYKQFKQIRLTDTLGRLSHILEMDHFALVVHEQIQYHSTGKSSQRQMVFGVVTAIDLLNFVAAQERDQK
